Assay results from article PMC11118528 (bioRxiv, 2024).

B1: Rvb1 (enzyme)
chain: MVAISEVKENPGVNSSNSGAVTRTAAHTHIKGLGLDESGVAKRVEGGFVGQIEAREACGVIVDLIKAKKMSGRAILLAGGPSTGKTALALAISQELGPKVPFCPLVGSELYSVEVKKTETLMENFRRAIGLRIKETKEVYEGEVTELTPEDAENPLGGYGKTISHVIVGLKSAKGTKTLRLDPTIYESIQREKVSIGDVIYIEANTGAVKRVGRSDAYATEFDLETEEYVPLPKGEVHKKKEIVQDVTLHDLDVANARPQGGQDVISMMGQLLKPKKTEITEKLRQEVNKVVAKYIDQGVAELIPGVLFIDEVNMLDIEIFTYLNKALESNIAPVVVLASNRGMTTVRGTEDVISPHGVPPDLIDRLLIVRTLPYDKDEIRTIIERRATVERLQVESSALDLLATMGTETSLRYALQLLAPCGILAQTSNRKEIVVNDVNEAKLLFLDAKRSTKILETSANYL
B2: Rvb1-R366A (enzyme)
chain: MVAISEVKENPGVNSSNSGAVTRTAAHTHIKGLGLDESGVAKRVEGGFVGQIEAREACGVIVDLIKAKKMSGRAILLAGGPSTGKTALALAISQELGPKVPFCPLVGSELYSVEVKKTETLMENFRRAIGLRIKETKEVYEGEVTELTPEDAENPLGGYGKTISHVIVGLKSAKGTKTLRLDPTIYESIQREKVSIGDVIYIEANTGAVKRVGRSDAYATEFDLETEEYVPLPKGEVHKKKEIVQDVTLHDLDVANARPQGGQDVISMMGQLLKPKKTEITEKLRQEVNKVVAKYIDQGVAELIPGVLFIDEVNMLDIEIFTYLNKALESNIAPVVVLASNRGMTTVRGTEDVISPHGVPPDLIDALLIVRTLPYDKDEIRTIIERRATVERLQVESSALDLLATMGTETSLRYALQLLAPCGILAQTSNRKEIVVNDVNEAKLLFLDAKRSTKILETSANYL

Legend:
Rvb2 = Rvb2 (S. cerevisiae, UniProt Q12464 1-471); assay: SEC
Rvb2-R350A = Rvb2-R350A (S. cerevisiae, UniProt Q12464 1-471, R350A); assay: SEC
Chain of Rvb2-R350A (Q12464 whole entry R350A): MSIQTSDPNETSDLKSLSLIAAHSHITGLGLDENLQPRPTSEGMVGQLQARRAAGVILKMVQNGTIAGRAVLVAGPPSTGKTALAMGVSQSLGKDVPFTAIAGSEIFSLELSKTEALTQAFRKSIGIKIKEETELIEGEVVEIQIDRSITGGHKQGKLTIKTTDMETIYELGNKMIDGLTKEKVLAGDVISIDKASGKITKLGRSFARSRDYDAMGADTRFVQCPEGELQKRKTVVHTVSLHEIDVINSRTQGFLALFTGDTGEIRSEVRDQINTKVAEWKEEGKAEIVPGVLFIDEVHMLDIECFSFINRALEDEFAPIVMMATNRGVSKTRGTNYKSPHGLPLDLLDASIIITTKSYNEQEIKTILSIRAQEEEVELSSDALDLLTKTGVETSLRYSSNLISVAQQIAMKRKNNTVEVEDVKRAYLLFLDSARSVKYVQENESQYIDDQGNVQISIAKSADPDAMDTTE

Chain of Rvb2 (Q12464 whole entry): as the sequence (Q12464 whole entry R350A) above, with A350R counted along it

Binder	binding result (Rvb2)	binding result (Rvb2-R350A)
B1	binds	binds
B2	binds	binds
